Results on one molecule are retold here after PMC13138755, “Potential Rad54 separation of function mutation highlights unique roles during homologous recombination”.

What all share (details): protein: recombinant; tags: GFP-GST (N-term); label: Atto647N 5' on strand 1; blunt
The target in data set [1] is T1, Rad54 D525S/D527S/S816D/S817D (Saccharomyces cerevisiae, UniProt P32863 1-898, D525S;D527S;S816D;S817D).
T1 sequence: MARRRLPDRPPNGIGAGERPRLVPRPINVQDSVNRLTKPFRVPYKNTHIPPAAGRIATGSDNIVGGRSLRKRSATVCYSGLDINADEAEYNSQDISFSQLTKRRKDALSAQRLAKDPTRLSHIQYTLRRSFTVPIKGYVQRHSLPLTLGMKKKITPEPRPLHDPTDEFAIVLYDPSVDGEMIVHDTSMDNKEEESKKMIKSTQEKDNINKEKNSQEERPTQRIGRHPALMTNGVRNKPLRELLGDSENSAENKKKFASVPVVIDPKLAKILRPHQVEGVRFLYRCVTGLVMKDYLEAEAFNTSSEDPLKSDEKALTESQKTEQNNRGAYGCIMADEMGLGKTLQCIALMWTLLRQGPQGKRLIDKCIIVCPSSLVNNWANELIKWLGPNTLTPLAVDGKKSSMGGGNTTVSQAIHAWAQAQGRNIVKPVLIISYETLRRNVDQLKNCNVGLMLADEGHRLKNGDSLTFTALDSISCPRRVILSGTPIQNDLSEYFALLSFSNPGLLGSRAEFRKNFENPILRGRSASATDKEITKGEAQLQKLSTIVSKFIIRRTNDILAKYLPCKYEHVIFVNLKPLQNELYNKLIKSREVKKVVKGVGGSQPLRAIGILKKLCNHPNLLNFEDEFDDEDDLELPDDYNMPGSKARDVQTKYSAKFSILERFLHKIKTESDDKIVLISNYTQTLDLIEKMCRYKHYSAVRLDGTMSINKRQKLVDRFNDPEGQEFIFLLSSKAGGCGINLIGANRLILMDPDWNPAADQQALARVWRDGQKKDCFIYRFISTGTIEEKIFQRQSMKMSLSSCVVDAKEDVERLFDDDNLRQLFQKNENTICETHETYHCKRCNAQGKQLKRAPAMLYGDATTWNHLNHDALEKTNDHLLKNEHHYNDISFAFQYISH
The data set is described as follows: EMSA; apparent Kd; Hill fit; 3 mM Mg2+; EMSA: 35 mM Tris-Cl pH 7.5, 3 mM MgCl2, 50 mM KCl, 1 mM DTT, 10% glycerol, 10 nM DNA, 30 C, 5 min, 8% native PAGE in 0.5x TBE; DNA curtains: HR buffer (composition not given), 10 nM GFP-Rad54, flow 0.2 mL/min.

Data set [2] has as its target T2, Rad54 S816D/S817D (Saccharomyces cerevisiae, UniProt P32863 1-898, S816D;S817D).
T2 sequence: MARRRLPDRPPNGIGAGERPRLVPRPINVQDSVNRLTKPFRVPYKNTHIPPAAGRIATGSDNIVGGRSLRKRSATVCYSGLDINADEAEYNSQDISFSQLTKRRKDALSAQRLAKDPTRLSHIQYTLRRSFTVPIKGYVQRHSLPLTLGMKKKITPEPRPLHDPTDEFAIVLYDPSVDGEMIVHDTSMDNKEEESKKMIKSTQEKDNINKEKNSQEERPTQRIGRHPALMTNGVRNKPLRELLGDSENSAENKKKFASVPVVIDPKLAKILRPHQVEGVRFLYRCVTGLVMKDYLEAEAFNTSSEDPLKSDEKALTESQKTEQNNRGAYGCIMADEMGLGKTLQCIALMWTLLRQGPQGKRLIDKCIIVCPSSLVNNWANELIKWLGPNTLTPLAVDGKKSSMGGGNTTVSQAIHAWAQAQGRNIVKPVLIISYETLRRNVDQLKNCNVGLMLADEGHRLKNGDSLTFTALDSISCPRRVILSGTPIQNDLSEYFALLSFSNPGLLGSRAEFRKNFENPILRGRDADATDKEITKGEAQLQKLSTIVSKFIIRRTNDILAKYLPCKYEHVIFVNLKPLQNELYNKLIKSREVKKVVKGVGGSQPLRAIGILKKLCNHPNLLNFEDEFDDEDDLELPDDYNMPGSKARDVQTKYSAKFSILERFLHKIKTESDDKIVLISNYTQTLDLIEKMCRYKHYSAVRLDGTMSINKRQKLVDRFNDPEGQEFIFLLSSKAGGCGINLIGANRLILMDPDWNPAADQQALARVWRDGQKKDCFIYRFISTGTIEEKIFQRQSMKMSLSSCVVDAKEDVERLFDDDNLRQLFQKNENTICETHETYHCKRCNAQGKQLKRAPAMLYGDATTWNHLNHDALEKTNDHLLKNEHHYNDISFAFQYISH
Briefly: EMSA; apparent Kd; Hill fit; 3 mM Mg2+; p = 0.008 vs WT; EMSA: 35 mM Tris-Cl pH 7.5, 3 mM MgCl2, 50 mM KCl, 1 mM DTT, 10% glycerol, 10 nM DNA, 30 C, 5 min, 8% native PAGE in 0.5x TBE; DNA curtains: HR buffer (composition not given), 10 nM GFP-Rad54, flow 0.2 mL/min.

The target of data set [3] is T3, Rad54 S816A/S817A (Saccharomyces cerevisiae, UniProt P32863 1-898, S816A;S817A).
T3 sequence: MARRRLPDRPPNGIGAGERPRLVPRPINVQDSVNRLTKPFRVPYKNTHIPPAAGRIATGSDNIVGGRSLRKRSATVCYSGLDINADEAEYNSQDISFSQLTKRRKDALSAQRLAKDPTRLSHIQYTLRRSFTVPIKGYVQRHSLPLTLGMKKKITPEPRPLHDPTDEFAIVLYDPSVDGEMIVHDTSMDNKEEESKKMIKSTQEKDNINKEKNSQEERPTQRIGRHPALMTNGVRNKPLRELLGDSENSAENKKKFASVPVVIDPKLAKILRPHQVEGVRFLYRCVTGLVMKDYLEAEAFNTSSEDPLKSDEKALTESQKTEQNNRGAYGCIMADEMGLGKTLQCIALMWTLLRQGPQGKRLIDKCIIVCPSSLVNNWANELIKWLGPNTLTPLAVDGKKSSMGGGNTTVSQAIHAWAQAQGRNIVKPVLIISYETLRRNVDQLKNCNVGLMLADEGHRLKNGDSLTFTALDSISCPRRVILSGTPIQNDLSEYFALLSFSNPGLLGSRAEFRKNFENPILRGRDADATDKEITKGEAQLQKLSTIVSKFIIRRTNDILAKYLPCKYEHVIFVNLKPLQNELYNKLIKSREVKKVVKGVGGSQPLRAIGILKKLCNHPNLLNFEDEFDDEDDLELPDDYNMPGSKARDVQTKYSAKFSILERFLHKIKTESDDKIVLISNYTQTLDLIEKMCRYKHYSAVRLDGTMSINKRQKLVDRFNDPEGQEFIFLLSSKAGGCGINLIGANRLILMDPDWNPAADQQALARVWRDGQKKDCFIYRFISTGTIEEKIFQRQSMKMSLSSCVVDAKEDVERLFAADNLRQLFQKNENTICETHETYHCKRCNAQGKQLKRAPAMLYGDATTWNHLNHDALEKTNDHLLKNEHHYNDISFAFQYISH
The data set is described as follows: EMSA; 3 mM Mg2+; Kd slightly above WT, not significant; value only in figure; EMSA: 35 mM Tris-Cl pH 7.5, 3 mM MgCl2, 50 mM KCl, 1 mM DTT, 10% glycerol, 10 nM DNA, 30 C, 5 min, 8% native PAGE in 0.5x TBE; DNA curtains: HR buffer (composition not given), 10 nM GFP-Rad54, flow 0.2 mL/min.

B1: 90 bp dsDNA (90-mer) (dsDNA)
DNA 1: GATGTTCTGCTGGATATGCACTTTTCCGGGCTGACGTACACCGTGCTCAGCCTGTTTTTCAGCGATCCGGATATGCATCCGCTGGATTTC
DNA 2: GAAATCCAGCGGATGCATATCCGGATCGCTGAAAAACAGGCTGAGCACGGTGTACGTCAGCCCGGAAAAGTGCATATCCAGCAGAACATC
With B1, the Kd in data set [1] was ~18 nM; in data set [2], 41 nM. Besides, the binding result in data set [3] was “binds”.
